# Measured values: patent US20230181719A1, “NGR CONJUGATES AND USES THEREOF” (OSPEDALE SAN RAFFAELE S.R.L., priority 2020, published 2023)
# Where two headings read alike, the source gives them in different places. Positions of bridges follow the written chain, without caps; N, C: chain ends. No end group written: not given here.
# B1: NGR-TNF: Murine CNGRCG-TNF fusion protein, conventional first-generation conjugate used as comparator (protein)
# chain: CNGRCGLRSSSQNSSDKPVAHVVANHQVEEQLEWLSQRANALLANGMDLKDNQLVVPADGLYLVYSQVLFKGQGCPDYVLLTHTVSRFAISYQEKVNLLSAVKSPCPKDTPEGAELKPWYEPIYLGGVFQLEKGDQLSAEVNLPKYLDFAESGQVYFGVIAL
# Legend:
# [1] = test system: RMA-T lymphoma; format: in vivo, mice
# Procedure: RMA-T tumor-bearing mice (6 per group) were treated 11 days after tumor implantation with 100 pg of S-NGR-hTNF (i.p.). Two hours later, the mice were injected (i.p.) with 50 µg of melphalan (generic preparation of melphalan, Tillomed).
# B) Kaplan-Maier curves of vehicle, melphalan alone and in combination with S-NGR-hTNF.
# C) Animal body weight change (mean ± SE, 6 mice per group). Arrows: pharmacological treatment.
# Inventors have shown previously that low-dose murine S-NGR-TNF (100 pg) can enhance the antitumor activity of melphalan, an anticancer alkylating agent, in a murine lymphoma model (Corti et al., 2020). To assess whether S-NGR-hTNF can also synergize with melphalan, inventors performed similar experiments using the RMA-T lymphoma model. As expected, administration of melphalan (50 µg) in combination with S-NGR-hTNF (100 pg) induced stronger antitumor effects than melphalan alone (FIGS. 21A-B).
# [2] = buffer; cited from earlier work
# [3] = molecular target: αvβ3 (Homo sapiens, UniProt P05106+P06756); conditions: cited from earlier work
# [4] = test system: primary central nervous system lymphoma (PCNSL); conditions: with R-CHOP; cited from earlier work
# [5] = test system: malignant pleural mesothelioma (MPM); conditions: cited from earlier work
# [6] = test system: WEHI-164 fibrosarcoma; assay: Low-dose treatment in subcutaneous WEHI-164 fibrosarcoma murine model; format: in vivo; conditions: 25 or 50 pg, i.p.
# Procedure: FIG. 14. […] Balb/c mice (6-7 weeks old, weighing 18-20 g) were injected, s.c., with 1.5×10^6 WEHI-164 cells in the left flank and treated 5 days after tumor implantation (i.p.) with 25 or 50 pg of murine NGR-TNF or S-NGR-TNF in 0.9% sodium chloride, containing 100 µg/ml endotoxin-free human serum albumin (arrows). A) Tumor volumes after treatment (mean±SE, 6 mice per group). B) Tumor weight at day 15 (cumulative data of the two groups treated with 25 and 50 pg of drugs). *, P<0.05, **P<0.01 by unpaired t test of the area under the curve for each tumor (GraphPad Prism software).
# To assess whether the addition of the Ser residue to NGR-TNF might affect its anti-tumor activity at low dose, inventors then analyzed the therapeutic activity of NGR-TNF and S-NGR-TNF (25 or 50 pg, i.p.) using the subcutaneous WEHI-164 fibrosarcoma murine model.
# [7] = test system: RMA lymphoma; format: in vivo, mice; conditions: 100 pg i.p., melphalan two hours later
# Procedure: FIG. 15. […] C57BL/6 mice (6-7 weeks old, weighing 18-20 g) were challenged with subcutaneous injection in the left flank of 7×10^4 RMA cells. Mice bearing RMA lymphomas (6 per group) were treated 10-11 days (after tumor implantation with 100 pg of murine NGR-TNF or S-NGR-TNF (i.p.). Two hours later, the mice were injected with the indicated dose of melphalan (i.p.). All proteins were diluted with 0.9% sodium chloride, containing 100 µg/ml endotoxin-free human albumin. Tumor growth was monitored daily by measuring the tumors with calipers. A-B) Tumor volume change of two independent experiments are shown (mean±SE). […] C) Tumor bearing-animals were treated at day 10 after tumor implantation as indicated above using the indicated dose of S-NGR-TNF and the generic preparation of melphalan (Melphalan-Tillomed, from Tillomed Italia). RMA tumor weight at day 20 are shown (mean±SE). *, P<0.05, **P<0.01 by unpaired t test analysis with the GraphPad Prism software.
# Effect of melphalan alone or in combination with low-dose murine S-NGR-TNF on the body weight and tumor growth of RMA-T lymphoma-bearing mice. Six tumor-bearing mice were injected with the indicated doses of S-NGR-TNF (i.p) and, two hours later, with the generic preparation of melphalan (Melphalan-Tillomed) (i.p.).
# Finally, to assess whether low-dose S-NGR-TNF can exert synergistic effects with chemotherapy, as previously observed for NGR-TNF, inventors performed in vivo experiments with S-NGR-TNF and NGR-TNF in combination with melphalan, a chemotherapeutic drug, using the murine RMA lymphoma model (FIG. 15).
# [8] = test system: L-M cells; assay: LM-cells cytolytic assay (MTT); format: cell-based; conditions: actinomycin D, 20 h, murine proteins
# Description: FIG. 8. Biochemical and biological characterization of murine S-NGR-TNF and NGR-TNF. A) SDS-PAGE under reducing (βMe +) and non-reducing conditions (βMe -) of murine S-NGR-TNF, NGR-TNF and TNF. Arrows: bands corresponding to monomeric subunits (mon) and reducible dimers (dim). B) Representative mass spectra of murine NGR-TNF, TNF and S-NGR-TNF as determined by a Q Exactive HF mass spectrometer. Expected average masses are shown. C) Cytotoxic activity of TNF, NGR-TNF and S-NGR-TNF against L-M cells. L-M cells were incubated in DMEM medium supplemented with 2 mM glutamine, 100 U/ml penicillin, 100 µg/ml streptomycin, 0.25 µg/ml amphotericin-B, 10% fetal bovine serum, 2 µg/ml actinomycin D and TNF, NGR-TNF or S-NGR-TNF at the indicated doses (20 h at 37° C., 5% CO2). Cell viability was quantified by standard 3-(4,5-dimethylthiazol-2-yl)-2,5-diphenyltetrazolium bromide (MTT) assay. D) Binding of TNF, NGR-TNF and S-NGR-TNF to sTNF-R1 (Etanercept). Microtiterplates were precoated with or without the indicated amount of sTNF-R1 (for 16 h), washed with PBS, blocked with PBS containing 3% milk, 1% BSA (binding buffer, 1 h) and incubated with the indicated amounts of TNF, NGR-TNF or S-NGR-TNF diluted in binding buffer (for 1.5 h). The binding of each protein to sTNF-R1 was then detected using a polyclonal anti-murine TNF (IP301, 5 µg/ml in binding buffer, 1 h) followed by a polyclonal goat anti-rabbit antibody conjugated with horseradish peroxidase (1:1000 in binding buffer, 1 h) and o-phenylendiammine as chromogenic substrate.
# To assess whether the addition of a serine residue to NGR-TNF affects its capability to recognize the TNF receptors and, consequently, its biological activity, inventors then analyzed the cytotoxic activity of TNF, NGR-TNF and S-NGR-TNF in the LM-cells cytolytic assay.
# [9] = test system: endothelial EA.hy926 cells; assay: EA.hy926 endothelial cell adhesion assay on protein-coated microtiterplates; format: cell-based; conditions: plates coated in PBS, no forced deamidation
# Procedure: FIG. 12. […] A) Adhesion of endothelial EA.hy926 cells to 96-wells microtiterplates coated with different amounts of murine TNF, NGR-TNF and S-NGR-TNF in 150 mM sodium chloride, 50 mM sodium phosphate buffer, pH 7.4 (PBS) (16 h). Each well was blocked with 2% BSA in PBS containing calcium chloride and magnesium chloride (DPBS, 30 min), seeded with 40.000 endothelial EA.hy926 cells in DPBS supplemented with 0.1% BSA (DPBS-B), and left to incubate for 2 h at 37° C., 5% CO2. After washing with DMEM-B, adherent cells were stained with crystal violet and quantified by spectrophotometric measurements at 570 nm. B) Microtiterplates pre-coated with 1 µg/ml of murine NGR-TNF or S-NGR-TNF in PBS (for 16 h) were incubated 0.1 M ammonium bicarbonate buffer, pH 8.5 (Ambic) at 37° C. for the indicated time to promote NGR deamidation. EA.hy926 cell adhesion assay was then performed as described above.
# This behavior likely reflects a further improvement in the CNGRCG (SEQ ID NO: 1) stability when fused to TNF.
# [10] = S-NGR-hTNF 100 pg in combination with melphalan 50 µg
# Sequence of αvβ3 (P06756 31-889 limits assumed): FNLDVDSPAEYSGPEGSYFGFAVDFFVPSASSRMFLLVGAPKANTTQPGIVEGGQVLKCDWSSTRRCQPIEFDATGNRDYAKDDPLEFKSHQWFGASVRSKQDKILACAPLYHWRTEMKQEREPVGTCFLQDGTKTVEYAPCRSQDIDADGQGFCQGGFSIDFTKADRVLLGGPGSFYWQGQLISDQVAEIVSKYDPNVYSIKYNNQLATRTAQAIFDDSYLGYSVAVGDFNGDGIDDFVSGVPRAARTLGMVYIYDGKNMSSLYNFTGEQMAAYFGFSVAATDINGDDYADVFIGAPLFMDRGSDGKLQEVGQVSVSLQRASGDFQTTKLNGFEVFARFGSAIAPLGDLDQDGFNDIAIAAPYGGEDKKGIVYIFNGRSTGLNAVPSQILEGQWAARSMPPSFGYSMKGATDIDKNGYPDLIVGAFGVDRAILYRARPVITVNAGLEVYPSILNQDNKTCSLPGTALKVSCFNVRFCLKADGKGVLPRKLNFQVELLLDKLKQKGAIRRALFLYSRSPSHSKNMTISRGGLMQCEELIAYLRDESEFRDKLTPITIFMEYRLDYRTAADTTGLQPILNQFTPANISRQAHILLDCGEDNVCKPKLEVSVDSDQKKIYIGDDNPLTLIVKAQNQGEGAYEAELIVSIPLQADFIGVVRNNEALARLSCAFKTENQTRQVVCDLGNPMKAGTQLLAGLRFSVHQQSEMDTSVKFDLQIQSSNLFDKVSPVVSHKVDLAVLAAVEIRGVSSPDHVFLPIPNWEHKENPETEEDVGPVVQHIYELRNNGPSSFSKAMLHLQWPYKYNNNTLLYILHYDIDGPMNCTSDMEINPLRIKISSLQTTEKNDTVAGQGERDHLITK
# Sequence of αvβ3 (P06756 891-1048 partner limits assumed): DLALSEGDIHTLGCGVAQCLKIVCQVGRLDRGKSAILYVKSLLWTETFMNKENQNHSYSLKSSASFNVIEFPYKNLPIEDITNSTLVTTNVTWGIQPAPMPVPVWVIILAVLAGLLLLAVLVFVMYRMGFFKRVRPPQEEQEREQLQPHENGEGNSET
# Sequence of αvβ3 (P05106 27-788): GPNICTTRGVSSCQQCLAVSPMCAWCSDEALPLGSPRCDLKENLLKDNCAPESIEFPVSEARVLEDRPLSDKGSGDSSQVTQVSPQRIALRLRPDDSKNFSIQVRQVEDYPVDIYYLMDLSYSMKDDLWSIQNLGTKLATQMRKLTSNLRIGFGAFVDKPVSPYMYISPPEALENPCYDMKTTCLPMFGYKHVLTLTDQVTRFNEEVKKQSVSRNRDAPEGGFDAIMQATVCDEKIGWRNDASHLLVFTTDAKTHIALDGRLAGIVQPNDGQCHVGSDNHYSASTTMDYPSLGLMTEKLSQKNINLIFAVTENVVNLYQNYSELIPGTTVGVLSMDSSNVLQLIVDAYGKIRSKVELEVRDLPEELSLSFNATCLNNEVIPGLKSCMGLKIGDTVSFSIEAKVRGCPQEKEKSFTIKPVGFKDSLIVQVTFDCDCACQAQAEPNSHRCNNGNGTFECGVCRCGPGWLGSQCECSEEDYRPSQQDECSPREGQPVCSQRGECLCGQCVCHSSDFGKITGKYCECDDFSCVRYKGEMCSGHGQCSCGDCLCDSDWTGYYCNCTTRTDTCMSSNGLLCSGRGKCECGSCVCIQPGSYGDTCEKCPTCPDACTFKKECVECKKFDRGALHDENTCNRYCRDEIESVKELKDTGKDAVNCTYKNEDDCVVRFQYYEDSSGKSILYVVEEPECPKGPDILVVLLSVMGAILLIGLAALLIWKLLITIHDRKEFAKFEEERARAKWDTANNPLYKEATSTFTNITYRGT
molecule,measurement,setting,value
"N[C@@H](Cc1ccc(N(CCCl)CCCl)cc1)C(=O)O [melphalan, reference compound]",median survival,[1]; melphalan 50 µg alone,~28 days
CNGRC (SEQ ID NO:5) (disulfide 1-5 (inferred); listed as Homo sapiens),deamidation half-life,[2],4 to 5 h
CisoDGRC (SEQ ID NO:41) (isoaspartate; disulfide cyclized; MOD_RES (1)..(1) Ciso or acetyl-Ciso or iso) [deamidation product of CNGRC],"affinity for αvβ3 greater than αvβ5, αvβ6, αvβ8, and α5β1",[3],10-100 fold
S-NGR-hTNF: Human SCNGRCG-TNF fusion protein expressed in E. coli (SEQ ID NO:27/28),median survival,[1]; [10],36.5 days
same,"toxicity of melphalan, judged from loss of animal weight",[1]; [10],without increasing its toxicity
"human NGR-TNF: CNGRCG fused to the human TNF sequence, tested in Phase II and III clinical studies",complete responses,[4],50%
same,responses,[4],75%
same,disease control in previously treated patients,"[5]; 0.8 µg/m^2, 1 h infusion",about half
same,duration of disease control,[5]; triweekly cohort,4.4 months
same,duration of disease control,[5]; weekly cohort,9.1 months
B1,toxicity,[6],No evidence of toxicity
same,tumor growth,[6],delayed tumor growth to similar extent
same,efficacy of melphalan in combination,[7],could enhance the efficacy of melphalan
same,EC50 cytotoxic activity,[8],very similar
same,EA.hy926 cell adhesion to coated plates,[9],cell adhesion was observed
